# Measurements from patent US20240034783A1.
# Target: CLDN18.2 expressed in mouse healthy stomach tissue (mouse) (UniProt P56857)
# Test: flow cytometry, live cells from healthy mouse stomach, antibody 4 µg/ml
% of positive healthy stomach cells (Average) [%],% of positive healthy stomach cells (Mouse 1) [%],% of positive healthy stomach cells (Mouse 2) [%],Binder
0.25,0.1,0.4,"hCl1c (antibody, human IgG1, kappa, V domains shown) VH: QVQLVQSGAEVKKPGASVKVSCKASGYTFTDYAMHWVRQAPGQRLEWMGWINTYTGKPTYSQKFQGRVTITRDTSASTAYMELSSLRSEDTAVYYCARAVFYGYTMDAWGQGTLVTVSS VL: DIQMTQSPSSLSASVGDRVTITCRTSEDIYSNLAWYQQKPGKAPKLLIFAIKRLQDGVPSRFSGSGSGTDFTLTISSLQPEDFATYYCLQGSKFPLTFGQGTKVEIKR"
0.07,0.04,0.1,"hCl1f (antibody, human IgG1, kappa, V domains shown) VH: QVQLVQSGAEVKKPGASVKVSCKASGYTFTDYAMHWVRQAPGQRLEWMGWINAYTGKPTYAQKFQGRVTITRDTSASTAYMELSSLRSEDTAVYYCARAVFYGYTMDAWGQGTLVTVSS VL: DIQMTQSPSSLSASVGDRVTITCRASEDIYSNLAWYQQKPGKAPKLLIYSVKRLQDGVPSRFSGSGSGTDFTLTISSLQPEDFATYYCLQGSNFPLTFGQGTKVEIKR"
0.35,0.4,0.3,"cCl1-1 (antibody, V domains shown) VH: QIQLVQSGPELKKPGESVKISCKASGYTFTDYAMHWVKQAPGKGLKWMGWINTYTGKPTYADDFKGRFVFSLEASASTANLQISNLKNEDTATYFCARAVFYGYTMDAWGQGTSVTVSS VL: DIQMTQSPASLSASLGETISIACRASEDIYSNLAWYQQKSGKSPQLLIFSVKRLQDGVPSRFSGSGSGTQYSLKISGMQPEDEGDYFCLQGSNFPLTFGSGTKLEIK"

# More lines, now with the values behind:
Binder,% of positive healthy stomach cells (Average) [%],% of positive healthy stomach cells (Mouse 1) [%],% of positive healthy stomach cells (Mouse 2) [%]
"hCl1a (antibody, human IgG1, kappa, V domains shown) VH: QVQLVQSGAEVKKPGASVKVSCKASGYTFTDYAMHWVRQAPGQRLEWMGWINTYTGKPTYAQKFQGRVTITRDTSASTAYMELSSLRSEDTAVYYCARAVFYGYTMDAWGQGTLVTVSS VL: DIQMTQSPSSLSASVGDRVTITCRASEDIYSNLAWYQQKPGKAPKLLIFSVKRLQDGVPSRFSGSGSGTDFTLTISSLQPEDFATYYCLQGSNFPLTFGQGTKVEIKR",0.75,1.2,0.3
"hCl1b (antibody, human IgG1, kappa, V domains shown) VH: QVQLVQSGAEVKKPGASVKVSCKASGYTFTDYAMHWVRQAPGQRLEWMGWINTYTGKPTYSQKFQGRVTITRDTSASTAYMELSSLRSEDTAVYYCARAVFYGYTMDAWGQGTLVTVSS VL: DIQMTQSPSSLSASVGDRVTITCRASEDIYSNLAWYQQKPGKAPKLLIFSVKRLQDGVPSRFSGSGSGTDFTLTISSLQPEDFATYYCLQGSNFPLTFGQGTKVEIKR",0.565,1,0.13
